Square brackets hold non-standard residues; d marks the D form. Primed or numbered codes have the meaning given here. Side chains are listed from the residue outwards. Ends that are not written are not given here. * marks the point of attachment. Biotin = O=C1N[C@H]2[C@H](CS[C@H]2CCCCC(=O)*)N1; PEG2(3) = PEG2 spacer carrying biotin on Lys; NMeL = CN[C@@H](CC(C)C)C(=O)O; PEG2′ = PEG2 spacer unit
B1: compound 19 (peptide)
peptide: RRAPGKLTCLASYCWLFK([PEG2′-Biotin])TGIA-NH2
modifications: not fully specified (bridges); printed as RRAPGKLTCLASYCWLFK(PEG2-Biotin)TGIA; cysteine pairing not given here
notes: also called compound 4 biotinylated at K18

What follows are binders tested against T1, human Factor IXa (human, UniProt P00740 47-191; P00740 227-461) (assay: BLI (ForteBio Octet 384), biotinylated peptide on streptavidin probes, soluble hFIXa 0-2000 nM, steady state, 1:1 model).
T1 construct: Bought protein; also called hFIXa; FIXa
Procedure: Briefly, a layer of molecules attached to the tip of an optical fiber creates an interference pattern upon incident white light. The combination of the optical fiber and biocompatible surface creates the physical conditions needed for BLI, allowing the detection of changes in mass accumulation on the tip of the probe. This is measured by alterations in the spectral shift (nm). These changes are recorded as a binding profile, a continuous, real-time monitoring of the association and dissociation of interacting molecules.
Control SA probes were loaded with 4M guanidinium chloride in the absence of biotinylated peptide for reference subtraction. After loading, probes were incubated in HBS-P for 300 sec to establish a new baseline. […] This is described as the dissociation phase. The equilibrium KD was derived from the non-linear regression analysis of the subtracted data (Reaction probe minus Reference probe) using a 1:1 binding model with ForteBio software (Version 7.0).

Binder	Kd [µM]
B1	0.12

These binders were tested against T1, human Factor IXa (assay: cell-based or functional assay).

Binder	EC50, FXa generation assay with human FIXa [µM]
KLTCLASYCWLF-NH2 (not fully specified (bridges); cysteine pairing not given here) [compound 1]	0.3

Molecular target: T1, human Factor IXa
Test: cell-based or functional assay
Remark: another data set of the same source

Binder	EC50 (µM), FXa generation assay, without phospholipids [µM]
KLTCLASYCWLF-NH2 (not fully specified (bridges); cysteine pairing not given here) [compound 1]	0.4
[dK][NMeL]TCLASYCWLF-NH2 (cysteine pairing not given here) [compound 2]	0.2

Molecular target: T1, human Factor IXa
Test: cell-based or functional assay
Remark: another data set of the same source

Binder	EC50 [µM], FXa generation assay [µM]	EC50 [µM], FXa generation assay with hFIXa [µM]
TLLYQNRTCLASYCWLFDKRSV	> 50	
SGGSGKLTCLASYCWPFGSQVR	> 50	
SGFGMKLTCLASYCGLFQGEIG	< 0.5	
{Biotin-PEG2(3)}-LYTAWIKCQFARLPGCALSGRW (cysteine pairing not given here) [Biotin-PEG2-LYTAWIKCQFARLPGCALSGRW]	> 10	
GGALQQLTCPASYCWLFPMEHS	> 10	
SYGRTKLTCLASSCWLFGQVHG	> 10	
EGRRDKLTCLASYCWLVGHGQH	> 25	
GFGSRKLTSLASYGWLIQDRLP	> 50	
LLHAQKLSCLASYCWVFDAEWD	< 0.5	
B1		< 0.5
QGQARKLACLASYCWLFPSSAG	> 50	
YARDSTLTCQARTCQLVDYLGP	> 50	
WHERQQLTCLASYCGLFVGQVA	< 0.5	
RRAPGKLQCLASYCWLFWTGAA	> 1	
KLTCLASYCWLF-NH2 (not fully specified (bridges); cysteine pairing not given here) [compound 1]		< 0.5
MAGMLKLTCFASYCGLFPLVSS	< 0.5	
RFQTTQLTCLGSASCLFNLSVR	> 1	
APPGGKRMCLVSGCQLFPWSAS	> 50	
GVEDRQLTCLASSCWVFSRHSV	> 1	

Binder	EC50 [µM], FXa generation assay [µM]	EC50 [µM], FXa generation assay with hFIXa [µM]
GIQGSEVACRASFCRLFEQGHV	> 50	
QDGDGKLTCRASYCRRFLVGVH	> 50	
AVAINKVPCVASYCQLFESKIH	> 20	
DAGPNKLRCLASYCQLFGGGHA	> 50	
RSFTSELTCLASSCRRFHHVPP	> 20	
RRAPGKLQCLASYCWLFWTAIA	< 0.5	
SGRGGKLTCQASFCQLFGNGLS	< 0.5	
HMQWGKLPCLASYCWLFWYGIG	> 1	
QDGVEKLTCLASYCWRFGDHGA	> 50	
HYARVQLRCLDGYCWLLTKSRM	> 10	
GEGGGKLSCVAIQCGLFKGLGR	> 50	
[dK][NMeL]TCLASYCWLF-NH2 (cysteine pairing not given here) [compound 2]	< 0.5	< 0.5
RYQRARLTCLASYCGLLFSMSA	> 15	
VDKGHQLRCQAGYCWLLGYNRE	> 50	
LRQRLAKTCVASYCWLFSLVAS	> 10	
LLQIPNLTCLGSYCWLDNGVYA	> 50	
AWPYHKPTCLASQCWQFLAQGS	> 50	
GAQLDKETCLASYCQLFSTVRR	> 20	
AQLRRKLTCLASYCWLFGFFSP	> 1	
